Source: the supplement of paper PMC10567573

B1: PTPN9 (parent)
chain: LKGAFPARLKKVLIVGAPIWFRVP
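Also: lentivirally expressed fusions sorted by FACS into six bins by GFP to DsRed ratio, PSI derived from sequencing read proportions per bin multiplied by bin number.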

Variants of: B1
Test: protein stability index of a GFP-peptide fusion (GPS, HEK-293T) (PSI 1-6); higher = more stable
Conditions: c terminus: a fixed tail appended
LKGAFPARLKKRLIVGAPIWFRVP [V12R] gave a protein stability index of 2.3. LKGAFPARLKKTLIVGAPIWFRVP [V12T] gave a protein stability index of 2.61. Variant LKGAFPARLKKALIVGAPIWFRVP [V12A] has a protein stability index of 3.43. With LKGAFPARLKKNLIVGAPIWFRVP [V12N] the protein stability index was 3.54. Work on LKGAFPARLKKGLIVGAPIWFRVP [V12G] yielded a protein stability index of 1.27. In the case of SKGAFPARLKKVLIVGAPIWFRVP [L1S], the protein stability index is reported as 4.61. With KKGAFPARLKKVLIVGAPIWFRVP [L1K] the protein stability index was 2.78. Work on VKGAFPARLKKVLIVGAPIWFRVP [L1V] yielded a protein stability index of 3.26. Work on WKGAFPARLKKVLIVGAPIWFRVP [L1W] yielded a protein stability index of 2.11. For LKGAFPARKKKVLIVGAPIWFRVP [L9K], the protein stability index was 2.57. In the case of LKGAFPARFKKVLIVGAPIWFRVP [L9F], the protein stability index is reported as 1.64. Variant LKGAFPARVKKVLIVGAPIWFRVP [L9V] has a protein stability index of 4.71. For LKGAFPALLKKVLIVGAPIWFRVP [R8L], the protein stability index was 2.2. LKGAFPAMLKKVLIVGAPIWFRVP [R8M] gave a protein stability index of 2.46. With LKGAFPAWLKKVLIVGAPIWFRVP [R8W] the protein stability index was 2.35. Work on LKGAFPAGLKKVLIVGAPIWFRVP [R8G] yielded a protein stability index of 2.76. LKGAFPANLKKVLIVGAPIWFRVP [R8N] showed a protein stability index of 2.74. LKGAFPAFLKKVLIVGAPIWFRVP [R8F] showed a protein stability index of 2.79. Work on LKGAFPASLKKVLIVGAPIWFRVP [R8S] yielded a protein stability index of 3.94. For LKGAFPARLKKVLIVGAPIKFRVP [W20K], the protein stability index was 2.56. In the case of LKGAFPARLKKVLIVGAPIHFRVP [W20H], the protein stability index is reported as 4.59. LKGAFPARLKKVLIVGAPIEFRVP [W20E] gave a protein stability index of 3.74. For LKGAFPARLKKVLIVGAPIFFRVP [W20F], the protein stability index was 2.45. For LKAAFPARLKKVLIVGAPIWFRVP [G3A], the protein stability index was 2.89. In the case of LKSAFPARLKKVLIVGAPIWFRVP [G3S], the protein stability index is reported as 3.35. LKDAFPARLKKVLIVGAPIWFRVP [G3D] showed a protein stability index of 3.16. Variant LKKAFPARLKKVLIVGAPIWFRVP [G3K] has a protein stability index of 3.39. With LFGAFPARLKKVLIVGAPIWFRVP [K2F] the protein stability index was 1.26. Variant LAGAFPARLKKVLIVGAPIWFRVP [K2A] has a protein stability index of 2.1. Work on LNGAFPARLKKVLIVGAPIWFRVP [K2N] yielded a protein stability index of 2.18. For LRGAFPARLKKVLIVGAPIWFRVP [K2R], the protein stability index was 3.96. LLGAFPARLKKVLIVGAPIWFRVP [K2L] gave a protein stability index of 3.37. In the case of LKGAFPARLKKVIIVGAPIWFRVP [L13I], the protein stability index is reported as 3.11. Work on LKGAFPARLKKVFIVGAPIWFRVP [L13F] yielded a protein stability index of 2.82. LKGAFPARLKKVNIVGAPIWFRVP [L13N] showed a protein stability index of 1.7. In the case of LKGAFPARLKKVDIVGAPIWFRVP [L13D], the protein stability index is reported as 1.01. For LKGAFPARLKKVPIVGAPIWFRVP [L13P], the protein stability index was 2.55. In the case of LKGAFPARLKKVLIVGAPTWFRVP [I19T], the protein stability index is reported as 4.11. Variant LKGAFPARLKKVLIVGAPHWFRVP [I19H] has a protein stability index of 1. LKGAFPARLKKVLIVGAPEWFRVP [I19E] showed a protein stability index of 2.64. For LKGAFPARLKKVLIVGAPSWFRVP [I19S], the protein stability index was 1.95. For LKGAFPARLKKVLIVWAPIWFRVP [G16W], the protein stability index was 1.74. In the case of LKGAFPARLKKVLIVIAPIWFRVP [G16I], the protein stability index is reported as 1.57. Variant LKGAFPARLKKVLIVFAPIWFRVP [G16F] has a protein stability index of 2.2. With LKGAFPARLKKVLIVRAPIWFRVP [G16R] the protein stability index was 3.43. In the case of LKGAFPARLKKVLIVNAPIWFRVP [G16N], the protein stability index is reported as 2.29. LKGAFPARLKKVLIVPAPIWFRVP [G16P] gave a protein stability index of 5.02. With LKGALPARLKKVLIVGAPIWFRVP [F5L] the protein stability index was 3.82. With LKGAPPARLKKVLIVGAPIWFRVP [F5P] the protein stability index was 2.49. LKGATPARLKKVLIVGAPIWFRVP [F5T] showed a protein stability index of 2.25. In the case of LKGAIPARLKKVLIVGAPIWFRVP [F5I], the protein stability index is reported as 3.12. LKGAFPARLQKVLIVGAPIWFRVP [K10Q] gave a protein stability index of 2.94. LKGAFPARLYKVLIVGAPIWFRVP [K10Y] gave a protein stability index of 2.2. In the case of LKGAFPARLSKVLIVGAPIWFRVP [K10S], the protein stability index is reported as 3.47. Variant LKGAFPARLKIVLIVGAPIWFRVP [K11I] has a protein stability index of 2.21. Work on LKGAFPARLKHVLIVGAPIWFRVP [K11H] yielded a protein stability index of 1.99. LKGAFPARLKEVLIVGAPIWFRVP [K11E] gave a protein stability index of 2.73. LKGAFPARLKFVLIVGAPIWFRVP [K11F] showed a protein stability index of 4.03. For LKGAFPARLKGVLIVGAPIWFRVP [K11G], the protein stability index was 1.84. In the case of LKGFFPARLKKVLIVGAPIWFRVP [A4F], the protein stability index is reported as 2.49. Work on LKGQFPARLKKVLIVGAPIWFRVP [A4Q] yielded a protein stability index of 2.61. Work on LKGIFPARLKKVLIVGAPIWFRVP [A4I] yielded a protein stability index of 3.45. Variant LKGDFPARLKKVLIVGAPIWFRVP [A4D] has a protein stability index of 3.24. Work on LKGLFPARLKKVLIVGAPIWFRVP [A4L] yielded a protein stability index of 3.88. In the case of LKGAFPARLKKVLRVGAPIWFRVP [I14R], the protein stability index is reported as 2.87. LKGAFPARLKKVLNVGAPIWFRVP [I14N] showed a protein stability index of 1.37. With LKGAFPARLKKVLPVGAPIWFRVP [I14P] the protein stability index was 2.98. Work on LKGAFPARLKKVLLVGAPIWFRVP [I14L] yielded a protein stability index of 2.73. With LKGAFPARLKKVLEVGAPIWFRVP [I14E] the protein stability index was 1.09. Work on LKGAFPARLKKVLAVGAPIWFRVP [I14A] yielded a protein stability index of 4.13. LKGAFPARLKKVLDVGAPIWFRVP [I14D] gave a protein stability index of 1.46. Variant LKGAFPARLKKVLIDGAPIWFRVP [V15D] has a protein stability index of 2.44. Variant LKGAFPARLKKVLISGAPIWFRVP [V15S] has a protein stability index of 1.37. For LKGAFPARLKKVLIYGAPIWFRVP [V15Y], the protein stability index was 2.25. Variant LKGAFPARLKKVLITGAPIWFRVP [V15T] has a protein stability index of 2.46. LKGAFPARLKKVLIKGAPIWFRVP [V15K] showed a protein stability index of 1.37. LKGAFPARLKKVLIFGAPIWFRVP [V15F] gave a protein stability index of 2.48. In the case of LKGAFPARLKKVLIQGAPIWFRVP [V15Q], the protein stability index is reported as 1.55. For LKGAFPARLKKVLIWGAPIWFRVP [V15W], the protein stability index was 1.27. In the case of LKGAFPARLKKVLIHGAPIWFRVP [V15H], the protein stability index is reported as 2.46. With LKGAFPARLKKVLIVGACIWFRVP [P18C] the protein stability index was 2.33. LKGAFPARLKKVLIVGATIWFRVP [P18T] showed a protein stability index of 1.99. LKGAFPARLKKVLIVGAGIWFRVP [P18G] showed a protein stability index of 4.24. Work on LKGAFPARLKKVLIVGAWIWFRVP [P18W] yielded a protein stability index of 4.58. For LKGAFPARLKKVLIVGTPIWFRVP [A17T], the protein stability index was 4.8. LKGAFPARLKKVLIVGKPIWFRVP [A17K] showed a protein stability index of 2.28. Variant LKGAFPARLKKVLIVGNPIWFRVP [A17N] has a protein stability index of 2.61. LKGAFPARLKKVLIVGFPIWFRVP [A17F] gave a protein stability index of 2.16. LKGAFPARLKKVLIVGLPIWFRVP [A17L] gave a protein stability index of 3.42. LKGAFPVRLKKVLIVGAPIWFRVP [A7V] gave a protein stability index of 2.57. In the case of LKGAFPQRLKKVLIVGAPIWFRVP [A7Q], the protein stability index is reported as 2.24. In the case of LKGAFPFRLKKVLIVGAPIWFRVP [A7F], the protein stability index is reported as 3.16. Work on LKGAFMARLKKVLIVGAPIWFRVP [P6M] yielded a protein stability index of 1.86. LKGAFHARLKKVLIVGAPIWFRVP [P6H] showed a protein stability index of 2.28.
